The data set is described as follows: soluble on expression in E. coli; label from the status in PepcDB or PDB records.
“MSLDLFSWAAAQQAAQSAPLAARMRPQTLDEFVGQEHLVGPGRFLRRALEAGHLPSCILFGPPGTGKTTLARLMASNVNAHFEQLNAVTSGVQDIRRIVDEARARLAERGQKTVVFIDEIHRWRKDQQDALLPHVEDGLITLVGATTQNPLVSVNAPLVSRTRIFELKPLSDEHIAHLLDRALRTPGRGLGNYNATVTPEAMEHLVRMAGGDARAALNALELAVLLTQPDEQGRRTVTLETAEEALLKRAVVYDHDGDEHYHVASALIKSIRGSDPDAALYWLARMLYAGEDPRFIARRLVISAAEDIGLADPQALVIAQAAADAVSFIGMPEGRIPLAEAVVYLACAPKSNSAYLAIDRALAVVEREKTPPVPNHLKDTGYGSDQRLGYGKGYQYPHDFPGAWVEQRYLPEGVDGPFWEPKGYGREAELARLLRERRGREGHHHHHH”: the “soluble on expression in E. coli” value is on record as “not soluble”.
“MGSDKIHHHHHHMSCSTAVKENTTQPDIMETNKKNLGNLLALYPKPMTVVGAEVEGKVNWLVVGHTGVIGHDRILVSMSKSHYTNQGIKKSKRLSVNLVSREMLPKADYVGSVSGATVDKSEVFAYHIGENDTPVIDASPLTMECEVVDIYETDGFDNFICAIVNTYAASDVLDSDGKLDYTKLKPVLFEFPTYSYLATGEIIGKCLNPDKPGMCVKEPMTTDGIVRLSKIEVYPQYLDEYMNYATEVGEISLRTEPGVLTMYAVGEKENPCKVTILETYASREAYEQHIASEHFQKYKQGTLHMVKSLVLSDQTPLNPANKLNNFMQ”: the “soluble on expression in E. coli” value is “not soluble”.
As for “MSLNYLMKEKYIGLHKFELDTPCLVIDYEKLKHNLEIMQQHGFTWGIGIRPHCKTHKCTQIARLQLEYGAIGISAAKLSEAAALVSKRITNVLITSLIVSEAKYSRLFNCLKSAPDLMLVVDDKDNIRMLNKLGKSLNQPVHVLLDIDSGIGRTGINPEAALEYGHFINGMNWLKLKGIQCYAGHLQHIQNYEERKAFSLQVMEMASRIVKSFRDANLPCEILTGTGTGTFDIDVEASEVTEIQPGSYAVMDVEYGSIGSKNNPSSFQLFKNSMTLLTSVISSNRREHATVDAGTKSIYVDPHHKPHIISHPGLVYDWGGFGDEHGKVFSCEGGSHFLQNGDVLEIIVPHCDPTINLYDKFYITENNVVVDIWDIDMRGKSEGHHHHHH”, the entry is “soluble”.
Consider “MNKFNEEYRKMEEDAQRRHQELNRQSLENAAEMKDSRRKILNKEFEGAILIKQVEHETKQVEKKRENLEKGHKKEMRNMSADFRKKKNEIEMEQLKLAIGNRVENHNQRKVEEQLRNEQERFLKKLLKYHTTTGANRDLFGEFQKVLKPFNEMIGELQDIKLRCITDGDADNGYIEYEVDYVGQLRRSVYTEIDEFREYIADEKNISKEIGIACAIYVKKLERIADCKELNLLCDQLQAAIEGKNGEIIKTCEIFIDKFTQKFESISNGSTSDFHRLRLKAPERDIPSSSTLTIEN”, for which the “soluble on expression in E. coli” value is “not soluble”.
As for “MRVSDQVVQKLQGLIEQRHLKQGDRLPAERQLATSLGISRPSLREAIQQLNSLGILASRRGDGTYIQQLPETWSQQLIVEPISNLIEEDPEYRFDVQEARIVLEGGTAWYAALRSTEADRAKIHQCFDEIAYHQLQGDSAAAAVADANFHLAIAEASHNLVLIQMMRSLFDLLQYNVVLGRKKVYNHPVSADQLSEQHFQVMDAIDRQDAQAARDAVCGHIEFVIDHVRSLDEDEARQKRATRLHRIDQT”, the entry is “not soluble”; as for “STAKNSPKEFTASESEVCIKTFKEQMRLELELPKLPGNRPTSPKISPRSSPRNSPCFFRKLLVNKSIRQRRRFTVAHTCFDVENGPSPGRSPLDPQAGSSSGLVLHAAFPGHSQRRESFLYRSDSDYDLSPKAMSRNSSLPSEQHGDDLIVTPFAQVLASLRSVRNNFTLLTNLHGAPNKRSPAASQAPVSRVSLQVCDHRRLTKCRESKRC”, “not soluble”.
For the sequence “MAHHHHHHMHNGVKTFHRVGFVGSKWKEVKNRGIARFIEAFAADTATALNVTPQAVHIADYAVADDIVVDFYVTHPGTDSAEVIDGKLEQFDYQRVWDLYGIPSEVDEQQRVVPCVMKCSNASRRTSPSSTCRLRMPDTNSVSQVDSFCPRCQRRLSSKQEFLQPDESSGWHPQPMHSHTSSISDAVRTALMEDSYSAIRKPSSTPPLPHLAHRYAPHQKWKGKLRSSRARIKRVVYHSCASHR”, the “soluble on expression in E. coli” value was “not soluble”.
Take “MHDTMHKIFGATPPIFSYTPILTMNLCIAKATPNVCHSTGNLCKAEMDNVTSWVYDKTQGLFITGE”: the “soluble on expression in E. coli” value was “not soluble”.
“MGSDKIHHHHHHMLNQVYRLVSPRQFEVETVAEEVDADDLIVRPKFLSICHADTRYFFGQRSQAALRAKLPMALIHEAVGEVVYDPRNEYKPGTLVAMVPNTPVKKDSIIQENYLPSSRFRSSGYDGFMQEYVCLRRDRAITVPSDFDPHMAAFIEMVSVGVQALTKLESTMDEDQRVIGIWGDGNLGYITATLVKQIFPDSQLLVFGRHQSKLDYFSFADKTYLVDDIPADVKVSQALECTGGQGSEAAIQQIIQHIQPMGTAILMGVSENPVGIDTRSVLAEGLTLRGVSRSSREDFKRAVDILSSSPVTRERLQNLVGYVQKVSSIQDITNFFDSALTNYWGKEVMEWDV”: the “soluble on expression in E. coli” value is “not soluble”.
Then “MTKKIVLAGGTGFIGQYLQQRFEENGDEVVIISRRAPHVSWDDSEAVREALEGADMLVNLAGKSVNCRYNEQNKKAILQSRIDTTNILGEAVLACERPPKLWLNSSTATIYRHAEDRAMTEANGELGSGFSENVAKAWEEEFFSFQLPNTRQAALRISIVLGGDGGALTPYRYLTKFGLGGKQGSGKQMVSWIHVEDVFRVIRFIEEQEALEGVINCTSPQPVSNKVLTTAIRRAMNVKVGLPATAWMLEIGTFLLRTESELILKSRWVLPERLLQAGFTFQYETIDDALSEILVQSKSASHLLEHHHHHH”, with “not soluble”; and “MTAARSAPSPAGAPRPGLRERKKTRTREAIRAATYGLIRQQGYEATTVEQIAERAEVSPSTVLRYFPTREDIVLTDEYDPVMAAELAARPAGEPWSDSLRHVLRKALGLGAGEEAELIRLRTRLLAEVPAVRARMLENMSDTGRMLARAIADRTGLDPDGLEVRIVSMSLVGGLMEVSRYWAEHDHEESLAELVDRALDALENGLPALRESDRESDREGDRGGHREDRREGPRKD”, with “soluble”.
Then “MGSDKIHHHHHHMANPLTGYNFAYLDEQTKRMIRRAILKAVAIPGYQVPFGGREMPMPYGWGTGGIQLTASVIGENDVLKVIDQGADDTTNAVSIRQFFKRVTGVATTERTEDATLIQTRHRIPETPLVEDQILIYQVPIPEPLRFIEPRETETRTMHALEEYGVMQVKLYEDIARFGHIATTYAYPVKVNGRYVMDPSPIPKFDNPKMHMMPALQLFGAGREKRIYAVPPYTPVESLDFDDHPFTVQEWDEPCAICGSRHSYLDEVVLDDSGQRMFVCSDTDYCRQQSEGQKK”, with “not soluble”; and “MQVLHVCSEMFPLLKTGGLADVIGALPAAQIADGVDARVLLPAFPDIRRGVTDAQVVSRRDTFAGHITLLFGHYNGVGIYLIDAPHLYDRPGSPYHDTNLFAYTDNVLRFALLGWVGAEMASGLDPFWRPDVVHAHDWHAGLAPAYLAARGRPAKSVFTVHNLAYQGMFYAHHMNDIQLPWSFFNIHGLEFNGQISFLKAGLYYADHITAVSPTYAREITEPQFAYGMEGLLQQRHREGRLSGVLNGVDEKIWSPETDLLLASRYTRDTLEDKAENKRQLQIAMGLKVDDKVPLFAVVSRLTSQKGLDLVLEALPGLLEQGGQLALLGAGDPVLQEGFLAAAAEYPGQVGVQIGYHEAFSHRIMGGADVILVPSRFEPCGLTQLYGLKYGTLPLVRRTGGLADTVSDCSLENLADGVASGFVFEDSNAWSLLRAIRRAFVLWSRPSLWRFVQRQAMAMDFSWQVAAKSYRELYYRLK”, with “not soluble”.
As for “MEEWVREQYGMRVERLERSGRHAAFWHRQERFLLVPADGQSEAEMEERQQMSRYLRAKGVDGVGELVKTTSGTYIASYNGQPLALVRAPLPASRFRSLGRELAVMHECGRTCPWPIVACRRIGQWRELWAKRIDQMEAFWSSKLASGPSSLFDRLFIESFPYYLGLAENAVQYVADTEIDEEPGRIDYAAFCHERLPEAKWVGGGEAKLPTDWVYDHCARDLAEWVRHLYEKSGLGCQRAVRQFFQEYEHAAPLSPFAWRLVYARLLFPLSYFECVEAYYIAVDESERTRREGELRRLLDRSHEYERFLASFAKIAGISNRIRLPAVEWLPPA”, the entry is “not soluble”.

The values above are taken from the DeepSol protein solubility set.
